Measured values: patent US20220363766A1, “COMPOSITIONS AND METHODS FOR TREATING CYTOTOXIC T CELL RESISTANT TUMORS” (Dana-Farber Cancer Institute, Inc., priority 2019, published 2022)
“Also recorded” adds a separate entry of the source.

Experiments:
human NK cells = test: Characterization of human NK cells in tumor-free NSG mice; type: in vivo; conditions: 10 mg/kg, 24 hours later, blood
Procedure: Tumor-free NSG mice were inoculated intravenously with 2×10^6 human NK cells that were expanded in vitro as described above. At the same time, mice also received intraperitoneal injections of IL-2 (7.5×10^4) as well as panobinostat (10 mg/kg) or PBS as the solvent control. One day later, blood was collected via eye bleeding, and human NK cells were analyzed by flow cytometry.
Tumor-free NSG mice were inoculated intravenously with 2×10^6 human NK cells that were expanded in vitro as described above. At the same time, mice also received intraperitoneal injections of IL-2 (7.5×10^4, Peprotech) as well as panobinostat (10 mg/kg) or PBS as the solvent control. One day later, blood was collected via eye bleeding, and human NK cells were analyzed by flow cytometry.

MICA/B = MICA/B shedding assays in A375 melanoma cells (shed MICA ELISA, MICA/B surface levels by flow cytometry); type: cell-based; conditions: control and B2M-KO A375 cells, 24 hours, vs isotype control
Procedure: 5×10^4 tumor cells were cultured for 24 hours in 96-wells plates (flat-bottom for adherent cells or U-bottom for suspension cells) in the presence of different concentrations of antibodies, IFNγ, and/or panobinostat (ApexBio, catalog number A8178), as indicated in each figure. Following a 24-hour culture period, plates were centrifuged for 5 minutes at 500× g, and supernatants were collected for analysis of shed MICA using the Human MICA ELISA Kit (Abcam, catalog number ab59569).
Adherent cells were detached with Versene (Gibco, catalog number 15040-066) to preserve the integrity of MICA/B proteins on the cell surface. Fc receptors were blocked using Human TruStain FcX™ (Biolegend, catalog number 422302), and cells were stained with PE or APC-conjugated anti-human MICA/B clone 6D4 (Biolegend, catalog numbers 320906 or 320908, respectively). […] Data were acquired using a BD Fortessa X20 or Beckman Coulter CytoFLEX LX, and analyses were performed using FlowJo V10 software.
5×10^4 tumor cells were cultured for 24 hours in 96-wells plates (flat-bottom for adherent cells or U-bottom for suspension cells) in the presence of different concentrations of antibodies, IFNγ, and/or panobinostat (ApexBio, catalog number A8178), as indicated in each figure. […]

A375 melanoma cells = test: Long-term NK cell-mediated killing assay (image cytometry of GFP+ tumor cells); type: cell-based; conditions: mAb 20 μg/ml pretreatment 24 hours, human NK cells, IL-2 300 U/ml, 72-hour period
Procedure: (§1) For long-term NK cell-mediated killing assays, GFP^+ control and B2M-KO A375 cells were pretreated for 24 hours with MICA/B or isotype control mAbs (20 μg/ml) in tissue culture media. Subsequently, tumor cells were detached with Versene, washed with PBS, and plated in black-wall 96-well plates (Corning™, catalog number 3603) at a density of 5×10^3 cells per well. Human NK cells were added 1-2 hours later at different effector to target ratios as indicated in the figures, and IL-2 (300 U/ml) was added to support NK cell survival. The number of GFP^+ tumor cells was tracked over time using a Celigo Image Cytometer (Nexcelom Bioscience, Lawrence, USA), as reported previously.^40
as §1, with “U/ml, BD Biosciences)” for “U/ml)”, “previously (33).” for “previously.^40”

Cc1[nH]c2ccccc2c1CCNCc1ccc(/C=C/C(=O)NO)cc1 [panobinostat]
impact on human NK cells transferred to NSG mice (circulating NK cells, CD16a or NKG2D positive NK cells) (human NK cells): did not negatively impact human NK cells; also recorded: did not inhibit reconstitution of NSG mice with human NK cells

B1: 7C6-hIgG1: MICA/B α3 domain specific mAb, clone 7C6 with human IgG1 Fc (antibody, V domains shown)
VH: QIQLVQSGPELKKPGETVKVSCKASGYMFTNYAMNWVKQAPEKGLKWMGWINTHTGDPTYADDFKGRIAFSLETSASTAYLQINNLKNEDTATYFCVRTYGNYAMDYWGQGTSVTVSS
VL: DIQMTQTTSSLSASLGDRVTISCSASQDISNYLNWYQQKPDGTVKLLIYDTSILHLGVPSRFSGSGSGTDYSLTISNLEPEDIATYYCQQYSKFPRTFGGGTTLEIK
MICA shedding (shed MICA, sandwich ELISA) (MICA/B): inhibited MICA shedding
surface levels of MICA/B (flow cytometry) (MICA/B): increased surface levels of MICA/B
efficacy in NK cell-mediated killing, B2M-KO vs control A375 cells (A375 melanoma cells): substantially more effective against B2M-KO compared to control A375 melanoma cells
